Results reported in the supplement of paper PMC11316812.
± gives the standard deviation of the averaged measurements.

Legend:
[1] = test system: MCF7; assay: percentage of EdU-negative (G0-arrested) nuclei per well, 72 h; higher = more G0 arrest; details: reference: sequence is the full UniProt precursor, the tested protein was the secreted form or ectodomain
[2] = test system: hTERT-HMEC; assay: as above; details: reference: sequence is the full UniProt precursor, the tested protein was the secreted form or ectodomain
[3] = protein concentration 0.03125 µM
[4] = protein concentration 0.3125 µM
[5] = protein concentration 0.01975 µM
[6] = protein concentration 0.1975 µM
[7] = protein concentration 0.0225 µM
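Further: secreted proteins added to cultured cells, EdU pulse at the end, nuclei found by Hoechst imaging, EdU status from nuclear versus surrounding ring intensity ratio, PBS as neutral control.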

Row | Sequence | percentage of EdU-negative [1, 3] [%] | percentage of EdU-negative [1, 4] [%] | percentage of EdU-negative [2, 3] [%] | percentage of EdU-negative [2, 4] [%] | percentage of EdU-negative [1, 7] [%] | percentage of EdU-negative ([1]; protein concentration 0.225 µM) [%] | percentage of EdU-negative [2, 7] [%] | percentage of EdU-negative ([2]; protein concentration 0.225 µM) [%] | other results
1 | MTSSLLLAFLLLAPTTVATPRAGGQCPACGGPTLELESQRELLLDLAKRSILDKLHLTQRPTLNRPVSRAALRTALQHLHGVPQGALLEDNREQECEIISFAETGLSTINQTRLDFHFSSDRTAGDREVQQASLMFFVQLPSNTTWTLKVRVLVLGPHNTNLTLATQYLLEVDASGWHQLPLGPEAQAACSQGHLTLELVLEGQVAQSSVILGGAAHRPFVAARVRVGGKHQIHRRGIDCQGGSRMCCRQEFFVDFREIGWHDWIIQPEGYAMNFCIGQCPLHIAGMPGIAASFHTAVLNLLKANTAAGTTGGGSCCVPTARRPLSLLYYDRDSNIVKTDIPDMVVEACGCS | 25.8 ± 2.3 | 27.7 ± 2.4 | 4.58 ± 0.61 | 5.17 ± 0.32 |  |  |  |  | 
2 | MTSSLQRPWRVPWLPWTILLVSTAAASQNQERLCAFKDPYQQDLGIGESRISHENGTILCSKGSTCYGLWEKSKGDINLVKQGCWSHIGDPQECHYEECVVTTTPPSIQNGTYRFCCCSTDLCNVNFTENFPPPDTTPLSPPHSFNRDETIIIALASVSVLAVLIVALCFGYRMLTGDRKQGLHSMNMMEAAASEPSLDLDNLKLLELIGRGRYGAVYKGSLDERPVAVKVFSFANRQNFINEKNIYRVPLMEHDNIARFIVGDERVTADGRMEYLLVMEYYPNGSLCKYLSLHTSDWVSSCRLAHSVTRGLAYLHTELPRGDHYKPAISHRDLNSRNVLVKNDGTCVISDFGLSMRLTGNRLVRPGEEDNAAISEVGTIRYMAPEVLEGAVNLRDCESALKQVDMYALGLIYWEIFMRCTDLFPGESVPEYQMAFQTEVGNHPTFEDMQVLVSREKQRPKFPEAWKENSLAVRSLKETIEDCWDQDAEARLTAQCAEERMAELMMIWERNKSVSPTVNPMSTAMQNERNLSHNRRVPKIGPYPDYSSSSYIEDSIHHTDSIVKNISSEHSMSSTPLTIGEKNRNSINYERQQAQARIPSPETSVTSLSTNTTTTNTTGLTPSTGMTTISEMPYPDETNLHTTNVAQSIGPTPVCLQLTEEDLETNKLDPKEVDKNLKESSDENLMEHSLKQFSGPDPLSSTSSSLLYPLIKLAVEATGQQDFTQTANGQACLIPDVLPTQIYPLPKQQNLPKRPTSLPLNTKNSTKEPRLKFGSKHKSNLKQVETGVAKMNTINAAEPHVVTVTMNGVAGRNHSVNSHAATTQYANGTVLSGQTTNIVTHRAQEMLQNQFIGEDTRLNINSSPDEHEPLLRREQQAGHDEGVLDRLVDRRERPLEGGRTNSNNNNSNPCSEQDVLAQGVPSTAADPGPSKPRRAQRPNSLDLSATNVLDGSSIQIGESTQDGKSGSGEKIKKRVKTPYSLKRWRPSTWVISTESLDCEVNNNGSNRAVHSKSSTAVYLAEGGTATTMVSKDIGMNCL | 26.3 ± 0.7 | 24 ± 3.6 | 4.72 ± 0.9 | 6.26 ± 1.5 |  |  |  |  | 
3 | MTSSRLWFSLLLAAAFAGRATALWPWPQNFQTSDQRYVLYPNNFQFQYDVSSAAQPGCSVLDEAFQRYRDLLFGSGSWPRPYLTGKRHTLEKNVLVVSVVTPGCNQLPTLESVENYTLTINDDQCLLLSETVWGALRGLETFSQLVWKSAEGTFFINKTEIEDFPRFPHRGLLLDTSRHYLPLSSILDTLDVMAYNKLNVFHWHLVDDPSFPYESFTFPELMRKGSYNPVTHIYTAQDVKEVIEYARLRGIRVLAEFDTPGHTLSWGPGIPGLLTPCYSGSEPSGTFGPVNPSLNNTYEFMSTFFLEVSSVFPDFYLHLGGDEVDFTCWKSNPEIQDFMRKKGFGEDFKQLESFYIQTLLDIVSSYGKGYVVWQEVFDNKVKIQPDTIIQVWREDIPVNYMKELELVTKAGFRALLSAPWYLNRISYGPDWKDFYIVEPLAFEGTPEQKALVIGGEACMWGEYVDNTNLVPRLWPRAGAVAERLWSNKLTSDLTFAYERLSHFRCELLRRGVQAQPLNVGFCEQEFEQT |  |  |  |  |  |  |  |  | percentage of EdU-negative [1, 5]: 25.5 ± 0.27%; percentage of EdU-negative [1, 6]: 26.4 ± 5.3%; percentage of EdU-negative [2, 5]: 5.032 ± 0.0092%; percentage of EdU-negative [2, 6]: 20.1 ± 1.8%
4 | MTTQLPAYVAILLFYVSRASCQDTFTAAVYEHAAILPNATLTPVSREEALALMNRNLDILEGAITSAADQGAHIIVTPEDAIYGWNFNRDSLYPYLEDIPDPEVNWIPCNNRNRFGQTPVQERLSCLAKNNSIYVVANIGDKKPCDTSDPQCPPDGRYQYNTDVVFDSQGKLVARYHKQNLFMGENQFNVPKEPEIVTFNTTFGSFGIFTCFDILFHDPAVTLVKDFHVDTIVFPTAWMNVLPHLSAVEFHSAWAMGMRVNFLASNIHYPSKKMTGSGIYAPNSSRAFHYDMKTEEGKLLLSQLDSHPSHSAVVNWTSYASSIEALSSGNKEFKGTVFFDEFTFVKLTGVAGNYTVCQKDLCCHLSYKMSENIPNEVYALGAFDGLHTVEGRYYLQICTLLKCKTTNLNTCGDSAETASTRFEMFSLSGTFGTQYVFPEVLLSENQLAPGEFQVSTDGRLFSLKPTSGPVLTVTLFGRLYEKDWASNASSGLTAQARIIMLIVIAPIVCSLSW |  |  |  |  | 26.6 ± 0.41 | 26.3 ± 2.3 | 5.11 ± 0.53 | 4.83 ± 0.5 | 
5 | MTTQLRVVHLLPLLLACFVQTSPKQEKMKMDCHKDEKGTIYDYEAIALNKNEYVSFKQYVGKHILFVNVATYCGLTAQYPELNALQEELKPYGLVVLGFPCNQFGKQEPGDNKEILPGLKYVRPGGGFVPSFQLFEKGDVNGEKEQKVFSFLKHSCPHPSEILGTFKSISWDPVKVHDIRWNFEKFLVGPDGIPVMRWSHRATVSSVKTDILAYLKQFKTK |  |  |  |  | 26.1 ± 1.7 | 27.7 ± 0.58 | 5.29 ± 0.31 | 7.84 ± 0.53 | 
